Measured values: PMC12416549 (2024)
Residue numbers refer to the chain shown, from its start. Names and notes keep the numbering of the source.

T1: TNFR1 (Homo sapiens, UniProt P19438)
T1 chain: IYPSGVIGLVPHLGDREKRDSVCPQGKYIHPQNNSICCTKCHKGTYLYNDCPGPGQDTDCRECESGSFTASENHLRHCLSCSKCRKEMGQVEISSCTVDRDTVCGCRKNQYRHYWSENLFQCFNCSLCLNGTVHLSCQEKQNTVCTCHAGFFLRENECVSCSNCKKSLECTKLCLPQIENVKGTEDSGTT

B1: M1I (designed binder)
chain: ITLQELLREEALRRAEAEAFRYALELLAEKFPEQKEYLLDLAEEIESQIRSLSGVDVEDVRKFLDKEWAWVKELLAEHPAELAEVEAARAARLAELRAEVEAKVAA
B2: A102K (designed binder)
chain: B1 chain with I1M, A102K
B3: L24H (designed binder)
chain: B1 chain with I1M, L24H
B4: L38A (designed binder)
chain: B1 chain with I1M, L38A
B5: L7D (designed binder)
chain: B1 chain with I1M, L7D
B6: A88P (designed binder)
chain: B1 chain with I1M, A88P
B7: L96M (designed binder)
chain: B1 chain with I1M, L96M
B8: E5Y (designed binder)
chain: B1 chain with I1M, E5Y
B9: T2G (designed binder)
chain: B1 chain with I1M, T2G
B10: K103N (designed binder)
chain: B1 chain with I1M, K103N
B11: F63G (designed binder)
chain: B1 chain with I1M, F63G
B12: E5D (designed binder)
chain: B1 chain with I1M, E5D
B13: E44T (designed binder)
chain: B1 chain with I1M, E44T
B14: L41C (designed binder)
chain: B1 chain with I1M, L41C
B15: L96G (designed binder)
chain: B1 chain with I1M, L96G
B16: L52E (designed binder)
chain: B1 chain with I1M, L52E
B17: E36Y (designed binder)
chain: B1 chain with I1M, E36Y
B18: F63Q (designed binder)
chain: B1 chain with I1M, F63Q
B19: L82S (designed binder)
chain: B1 chain with I1M, L82S
B20: K30T (designed binder)
chain: B1 chain with I1M, K30T
B21: E81K (designed binder)
chain: B1 chain with I1M, E81K
B22: A69M (designed binder)
chain: B1 chain with I1M, A69M
B23: L41E (designed binder)
chain: B1 chain with I1M, L41E
B24: E43F (designed binder)
chain: B1 chain with I1M, E43F
B25: L93R (designed binder)
chain: B1 chain with I1M, L93R
B26: A90S (designed binder)
chain: B1 chain with I1M, A90S
B27: E58C (designed binder)
chain: B1 chain with I1M, E58C
B28: K30A (designed binder)
chain: B1 chain with I1M, K30A
B29: A102N (designed binder)
chain: B1 chain with I1M, A102N
B30: K35Y (designed binder)
chain: B1 chain with I1M, K35Y
B31: L75V (designed binder)
chain: B1 chain with I1M, L75V
B32: I49A (designed binder)
chain: B1 chain with I1M, I49A
B33: A88K (designed binder)
chain: B1 chain with I1M, A88K
B34: E99N (designed binder)
chain: B1 chain with I1M, E99N
B35: A42Y (designed binder)
chain: B1 chain with I1M, A42Y
B36: I49E (designed binder)
chain: B1 chain with I1M, I49E
B37: L27Q (designed binder)
chain: B1 chain with I1M, L27Q
B38: R50V (designed binder)
chain: B1 chain with I1M, R50V
B39: L64R (designed binder)
chain: B1 chain with I1M, L64R
B40: F63P (designed binder)
chain: B1 chain with I1M, F63P
B41: I45D (designed binder)
chain: B1 chain with I1M, I45D
B42: L7F (designed binder)
chain: B1 chain with I1M, L7F
B43: E58Y (designed binder)
chain: B1 chain with I1M, E58Y
B44: R13C (designed binder)
chain: B1 chain with I1M, R13C
B45: A15W (designed binder)
chain: B1 chain with I1M, A15W
B46: A15I (designed binder)
chain: B1 chain with I1M, A15I
B47: L24M (designed binder)
chain: B1 chain with I1M, L24M
B48: L12S (designed binder)
chain: B1 chain with I1M, L12S
B49: I49C (designed binder)
chain: B1 chain with I1M, I49C
B50: E84N (designed binder)
chain: B1 chain with I1M, E84N
B51: L74I (designed binder)
chain: B1 chain with I1M, L74I
B52: F20H (designed binder)
chain: B1 chain with I1M, F20H
B53: E5Q (designed binder)
chain: B1 chain with I1M, E5Q
B54: A90Q (designed binder)
chain: B1 chain with I1M, A90Q
B55: E81T (designed binder)
chain: B1 chain with I1M, E81T

Target: T1, TNFR1
Assay: yeast display SC50

B1 and B2 are within 1.5-fold of each other in “apparent Kd (screen)” value: 0.49 nM for the first, 0.539 nM for the second.

First: B3
Second: B4
The “apparent Kd (screen)” value of the first is 8.1-fold lower: 1.54 nM for the first, 12.5 nM for the second.

First: B5
Second: B6
The “apparent Kd (screen)” value of the first is 2.6-fold lower: 0.79 nM for the first, 2.05 nM for the second.

B7 and B8 are the same in “apparent Kd (screen)” value: 0.718 nM for the first, 0.718 nM for the second.

Compared with B9, B10 is 2.4-fold lower in “apparent Kd (screen)” value: 1.16 nM for the first, 0.49 nM for the second.

First: B11
Second: B12
The “apparent Kd (screen)” value of the first is 1.8-fold higher: 0.869 nM for the first, 0.49 nM for the second.

First: B13
Second: B14
The “apparent Kd (screen)” value of the first is 3.8-fold higher: 9.41 nM for the first, 2.48 nM for the second.

Going from B15 to B16, the “apparent Kd (screen)” value rises from 2.48 nM to 24.4 nM (9.8-fold).

Going from B17 to B18, the “apparent Kd (screen)” value rises from 0.539 nM to 2.73 nM (5.1-fold).

First: B19
Second: B20
The “apparent Kd (screen)” value of the first is 2.4-fold higher: 1.54 nM for the first, 0.653 nM for the second.

B21 and B22 are within 1.5-fold of each other in “apparent Kd (screen)” value: 0.539 nM for the first, 0.79 nM for the second.

Going from B23 to B24, the “apparent Kd (screen)” value falls from 2.25 nM to 0.653 nM (3.4-fold).

Going from B25 to B26, the “apparent Kd (screen)” value falls from 0.869 nM to 0.49 nM (1.8-fold).

First: B27
Second: B28
The “apparent Kd (screen)” value of the first is 1.6-fold lower: 0.653 nM for the first, 1.05 nM for the second.

B29 and B30 are within 1.5-fold of each other in “apparent Kd (screen)” value: 0.539 nM for the first, 0.446 nM for the second.

Compared with B31, B32 is 4.6-fold higher in “apparent Kd (screen)” value: 0.593 nM for the first, 2.73 nM for the second.

B33 and B34 are within 1.5-fold of each other in “apparent Kd (screen)” value: 0.539 nM for the first, 0.718 nM for the second.

Compared with B35, B36 is 4.6-fold lower in “apparent Kd (screen)” value: 11.4 nM for the first, 2.48 nM for the second.

Going from B37 to B38, the “apparent Kd (screen)” value rises from 0.446 nM to 1.4 nM (3.1-fold).

Compared with B39, B40 is 2.1-fold lower in “apparent Kd (screen)” value: 5.31 nM for the first, 2.48 nM for the second.

First: B41
Second: B42
The “apparent Kd (screen)” value of the first is 4.6-fold lower: 1.54 nM for the first, 7.07 nM for the second.

B43 and B44 are the same in “apparent Kd (screen)” value: 0.539 nM for the first, 0.539 nM for the second.

B45 and B46 are the same in “apparent Kd (screen)” value: 0.593 nM for the first, 0.593 nM for the second.

Compared with B47, B48 is 1.6-fold higher in “apparent Kd (screen)” value: 0.718 nM for the first, 1.16 nM for the second.

First: B49
Second: B50
The “apparent Kd (screen)” value of the first is 2.9-fold higher: 2.48 nM for the first, 0.869 nM for the second.

First: B51
Second: B52
The “apparent Kd (screen)” value of the first is 5.6-fold higher: 2.73 nM for the first, 0.49 nM for the second.

B53 and B54 are within 1.5-fold of each other in “apparent Kd (screen)” value: 0.49 nM for the first, 0.593 nM for the second.

For B55, the “apparent Kd (screen)” value was 0.539 nM.
